Positions count from the first letter of the chain named. In names and notes the source's numbering stands.
T1: cynomolgus SIRP-α D1 domain (cyno1) (cynomolgus monkey, UniProt Q5TFQ8 30-148 (human entry), limits assumed)
T1 chain: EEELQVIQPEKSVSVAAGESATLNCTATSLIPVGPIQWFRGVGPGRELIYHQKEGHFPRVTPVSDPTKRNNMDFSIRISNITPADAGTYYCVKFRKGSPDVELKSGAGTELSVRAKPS

T2: mouse 129 SIRP-α D1 domain (mouse (129 strain), UniProt P97797 32-150)
T2 construct: also called m129
T2 chain: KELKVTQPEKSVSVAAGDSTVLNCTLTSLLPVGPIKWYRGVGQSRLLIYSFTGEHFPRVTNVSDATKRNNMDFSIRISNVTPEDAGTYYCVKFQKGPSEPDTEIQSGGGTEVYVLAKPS

T3: NOD mouse SIRP-α D1 domain (mouse (NOD strain))
T3 chain: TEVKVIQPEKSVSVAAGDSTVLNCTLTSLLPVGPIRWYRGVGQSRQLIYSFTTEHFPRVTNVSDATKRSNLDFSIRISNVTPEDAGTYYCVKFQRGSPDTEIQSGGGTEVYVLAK

T4: C57BL/6 mouse SIRP-α D1 domain (mouse (C57BL/6 strain), UniProt P97797 32-148)
T4 sequence: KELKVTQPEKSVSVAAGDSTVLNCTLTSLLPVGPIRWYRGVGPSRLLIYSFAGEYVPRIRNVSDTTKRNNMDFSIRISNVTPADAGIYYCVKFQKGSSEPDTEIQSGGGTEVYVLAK

T5: high affinity SIRP-α D1 variant CV1-3
T5 chain: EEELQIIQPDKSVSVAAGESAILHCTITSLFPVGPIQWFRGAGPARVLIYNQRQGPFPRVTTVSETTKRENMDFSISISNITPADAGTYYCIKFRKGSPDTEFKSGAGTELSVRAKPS

T6: cynomolgus SIRP-α D1 domain (cyno2) (cynomolgus monkey, UniProt Q5TFQ8 30-148 (human entry), limits assumed)
T6 chain: T1 chain with E19D, A27V, T28S, V42A, H51N, Q52L, P62A

T7: cynomolgus SIRP-α D1 domain (SEQ ID NO:11) (cynomolgus, UniProt Q5TFQ8 30-148 (human entry), limits assumed)
T7 construct: also called cyno1
T7 chain: T1 chain

B1: S209 (scFv, V domains shown)
VH: DVQLVESGGAVVRPGESLRLSCKASGFTFTNFAMSWVRQAPGEGLEWVSGISGSDDTTYYADSVKGRFTISRDNSESTLYLQMNSLRAEDTAVYYCVKDSTVSWNTFFDYWGLGTLVTVSS
VL: ALTQPASVSANLGGTVKITCSGGYGSDDGSSSYYGWYQQKSPGSAPVILIYWDDKRPSDIPSRFSGSTSGSTTTLTITGVQAEDEAVYFCGTYDTSSGAIFGAGTTLTVL
B2: S191 (scFv, V domains shown)
VH: DVQLVESGGGVVRPGESLRLSCAASGFSFSSYAMNWVRQAPGEGLEWVSRINSGGGGTDYAESVKGRFTISRDNSENTLYLQMNSLRAEDTAVYYCAKQYDWNGFFDYWGLGALVTVSS
VL: ETVLTQSPATLSVSPGERATLSCRASQTVGSKLAWHQQKPGQAPRLLIYDATNRATGIPDRFSGSGSGTDFTLTISGLQTEDSAVYYCQQYYYWPPYRFGGGTKVEIK
notes: also called clone 191
B3: S132 (scFv, V domains shown)
VH: B2 VH with S30R, E62D, E76K, G104S
VL: B2 VL with T52S, G77S, L78P
B4: S198 (scFv, V domains shown)
VH: B2 VH with Y32H
VL: B2 VL with G77S
B5: 119 wt/wt_M34V (antibody, human IgG1, V domains shown)
VH: DVQLLESGGGVVQPGGSLRLSCAASGFSFSNFAVTWVRQAPGEGLEWVSTIGSGDTYYADSVKGRFTISRDNSKNTLYLQMNSLRAEDTAVYYCAKDSTVSWSGDFFDYWGLGTLVTVSS
VL: EIVLTQSPATLSVSPGERATFSCRASQNVKNDLAWYQQRPGQAPRLLIYAARIRETGIPERFSGSGSGTEFTLTITSLQSEDFAVYYCQQYYDWPPFTFGGGTKVEIK
notes: human IgG1 with L234A, L235A, G237A, N297A
B6: 119 wt/wt_M34L (antibody, human IgG1, V domains shown)
VH: B5 VH with V34L
VL: B5 VL
notes: as for B5
B7: 135 wt/wt_M34V (antibody, human IgG1, V domains shown)
VH: B5 VH with L5V, Q13R, G16E, N31I, F32Y, T35S, S53A, G54D, S101G
VL: EIVLTQSPATLSVSPGERVTFSCRASQNVRSDIAWYQQKPGQAPRLLIYAASSRDTGIPDRFSGSGSGTDFTLTISSLQSEDFGVYYCQQYYDWPPFTFGGGTKVEIK
notes: as for B5
B8: 135 wt/wt_M34L (antibody, human IgG1, V domains shown)
VH: B5 VH with L5V, Q13R, G16E, N31I, F32Y, V34L, T35S, S53A, G54D, S101G
VL: B7 VL
notes: as for B5
B9: antibody 135 variant mut/mut (antibody, human IgG1, V domains shown)
VH: B5 VH with D1E, L5V, N31I, F32Y, T35S, E43K, S53A, G54D, S101G, L112Q
VL: B7 VL with F21L, D60A
notes: Human IgG1 with L234A/L235A/G237A/N297A; Labels are in the order VL/VH
B10: antibody 135 variant mut/wt (antibody, human IgG1, V domains shown)
VH: B5 VH with L5V, Q13R, G16E, N31I, F32Y, V34M, T35S, S53A, G54D, S101G
VL: B7 VL with F21L, D60A
notes: as for B9
B11: antibody 135 wt/wt (parental) (antibody, human IgG1, V domains shown)
VH: B5 VH with L5V, Q13R, G16E, N31I, F32Y, V34M, T35S, S53A, G54D, S101G
VL: B7 VL
notes: Human IgG1 with L234A/L235A/G237A/N297A; Labels are in the order VL/VH; also called AB135a
B12: antibody 135 variant wt/mut (antibody, human IgG1, V domains shown)
VH: B5 VH with D1E, L5V, N31I, F32Y, T35S, E43K, S53A, G54D, S101G, L112Q
VL: B7 VL
notes: as for B9

Molecular target: T8, human SIRPγ isoform 1 (human, UniProt Q9P1W8 29-147)
T8 construct: also called SIRPg; sirpg
Assay: SPR
In short: (§1)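 Pre-filtered culture media supplied the scFv-Fc antibody clones, which were captured by anti-human IgG Fc amine-coupled (about 4000 RU) to a GLC chip on a ProteOn XPR36. SIRP analytes were flowed in PBS pH 7.4 with 0.01% Tween-20 at 25° C. Interspot and buffer-blank responses were subtracted from the data, which were then fitted to a 1:1 Langmuir model. Dissociation rate constants (koff) were derived from this fitting.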
T8 sequence (Q9P1W8 29-147 limits assumed): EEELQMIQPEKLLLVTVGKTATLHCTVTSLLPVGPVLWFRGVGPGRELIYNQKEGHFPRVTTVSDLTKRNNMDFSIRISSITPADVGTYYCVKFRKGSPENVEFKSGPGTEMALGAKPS

| Binder | binding result |
| --- | --- |
| B1 | no binding (tested: Koff > 5 × 10^3 (legend)) |

Molecular target: T1, cynomolgus SIRP-α D1 domain (cyno1)
Assay: SPR
In short: as §1

| Binder | binding result |
| --- | --- |
| B1 | no binding (tested: Koff > 5 × 10^3 (legend)) |

Molecular target: T2, mouse 129 SIRP-α D1 domain
Assay: SPR
In short: as §1

| Binder | binding result |
| --- | --- |
| B2 | no binding (tested: Koff > 5 × 10^3 (legend)) |
| B3 | no binding (tested: Koff > 5 × 10^3 (legend)) |
| B4 | no binding (tested: Koff > 5 × 10^3 (legend)) |

Molecular target: T3, NOD mouse SIRP-α D1 domain
Assay: SPR
In short: as §1

| Binder | binding result |
| --- | --- |
| B2 | no binding (tested: Koff > 5 × 10^3 (legend)) |
| B3 | no binding (tested: Koff > 5 × 10^3 (legend)) |
| B4 | no binding (tested: Koff > 5 × 10^3 (legend)) |

Molecular target: T4, C57BL/6 mouse SIRP-α D1 domain
Assay: SPR
In short: as §1

| Binder | binding result |
| --- | --- |
| B2 | no binding (tested: Koff > 5 × 10^3 (legend)) |
| B3 | no binding (tested: Koff > 5 × 10^3 (legend)) |
| B4 | no binding (tested: Koff > 5 × 10^3 (legend)) |
| B1 | no binding (tested: Koff > 5 × 10^3 (legend)) |

Molecular target: T5, high affinity SIRP-α D1 variant CV1-3
Assay: SPR, Langmuir fit
In short: as §1

| Binder | koff |
| --- | --- |
| B2 | 0.000295 s⁻¹ |
| B3 | 7.95e-05 s⁻¹ |
| B4 | 0.000787 s⁻¹ |
| B1 | 0.00245 s⁻¹ |

Molecular target: T8, human SIRPγ isoform 1
Assay: SPR, Langmuir fit
In short: as §1

| Binder | koff |
| --- | --- |
| B3 | 1.05e-05 s⁻¹ |

Molecular target: T9, human SIRP-α v1 D1 domain (human, UniProt P78324 31-149)
T9 construct: also called human v1
Assay: SPR, Langmuir fit
In short: as §1
T9 sequence (P78324 31-149 limits assumed): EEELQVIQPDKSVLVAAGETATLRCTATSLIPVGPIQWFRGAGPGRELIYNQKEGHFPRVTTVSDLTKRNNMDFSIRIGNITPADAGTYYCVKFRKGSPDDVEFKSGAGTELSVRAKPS

| Binder | koff |
| --- | --- |
| B2 | 6.67e-05 s⁻¹ |
| B3 | 3.34e-05 s⁻¹ |
| B4 | 3.67e-05 s⁻¹ |
| B1 | 0.000659 s⁻¹ |

Molecular target: T10, human SIRP-α v2 D1 domain (human)
T10 construct: also called human v2
Assay: SPR, Langmuir fit
In short: as §1
T10 sequence (chain, as listed by the source limits assumed): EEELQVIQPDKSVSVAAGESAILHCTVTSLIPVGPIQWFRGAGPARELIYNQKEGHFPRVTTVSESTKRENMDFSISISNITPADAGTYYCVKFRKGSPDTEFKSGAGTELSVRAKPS

| Binder | koff |
| --- | --- |
| B2 | 3.53e-05 s⁻¹ |
| B3 | 2.06e-05 s⁻¹ |
| B4 | 4.95e-05 s⁻¹ |
| B1 | 0.00401 s⁻¹ |

Molecular target: T1, cynomolgus SIRP-α D1 domain (cyno1)
Assay: SPR, Langmuir fit
In short: as §1

| Binder | koff |
| --- | --- |
| B2 | 5.54e-05 s⁻¹ |
| B3 | 4.28e-05 s⁻¹ |
| B4 | 8.34e-05 s⁻¹ |

Molecular target: T6, cynomolgus SIRP-α D1 domain (cyno2)
Assay: SPR, Langmuir fit
In short: as §1

| Binder | koff |
| --- | --- |
| B2 | 1.38e-05 s⁻¹ |
| B3 | 7.12e-05 s⁻¹ |
| B4 | 7.73e-05 s⁻¹ |

Molecular target: T11, human SIRPβ isoform 1 (human, UniProt O00241 30-148)
T11 construct: also called SIRPb; sirpb1
T11 sequence (O00241 30-148 limits assumed): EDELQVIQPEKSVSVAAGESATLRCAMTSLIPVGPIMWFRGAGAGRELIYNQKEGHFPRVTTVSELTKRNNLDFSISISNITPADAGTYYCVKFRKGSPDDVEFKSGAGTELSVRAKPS
Assay: SPR, Langmuir fit
In short: as §1

| Binder | koff |
| --- | --- |
| B2 | 1.01e-05 s⁻¹ |
| B3 | 1.01e-05 s⁻¹ |
| B4 | 4.72e-05 s⁻¹ |
| B1 | 6.54e-05 s⁻¹ |

Molecular target: T12, human SIRP-α v1 D1 domain (human, UniProt P78324 31-149)
T12 construct: biotinylated and captured on avidin in the ELISA; also called human v1
Assay: SPR, antibody immobilised on GLC chip
In short: (§2)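 Protein A-purified antibodies were diluted to 80 nM in 10 mM sodium acetate pH 4.5 and amine-coupled (~1000 RU) to a GLC chip of a ProteOn XPR36 biosensor. SIRP analytes were injected one-shot at 100, 33, 11, 3.7, 1.2 and 0 nM in PBS pH 7.4 with 0.01% Tween-20 at 25° C. Association ran 90 s at 100 μL/min and dissociation 1200 s. KD came from double-referenced data fitted globally to a Langmuir model, as kd/ka.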
T12 sequence (P78324 31-149 limits assumed): as the sequence (P78324 31-149 limits assumed) above

| Binder | binding result |
| --- | --- |
| B5 | binds |
| B6 | binds |
| B7 | binds |
| B8 | binds |

Molecular target: T13, human SIRP-α v2 D1 domain (human)
T13 construct: biotinylated and captured on avidin in the ELISA; also called human v2
Assay: SPR, antibody immobilised on GLC chip
In short: as §2

| Binder | binding result |
| --- | --- |
| B5 | binds |
| B6 | binds |
| B7 | binds |
| B8 | binds |

Molecular target: T14, human SIRP-α v1 D1 domain (human, UniProt P78324 31-149)
T14 construct: also called human v1; human α v1
Assay: SPR, antibody immobilised on GLC chip
Protocol: (§3) All experiments were performed at 25° C. using a SPR-based ProteOn XPR36 biosensor (BioRad, Inc, Hercules, Calif.) equipped with GLC or NLC sensor chips. […] Purification was carried out by standard Protein A affinity column chromatography and eluted antibodies were stored in PBS buffer.
(§4) For the method using GLC chip, the analytes were injected and flowed over anti-SIRPα antibodies immobilized (˜1000 RUs) on GLC chips using Proteon™ Amine Coupling Kit. For the immobilization step, GLC chip was activated with EDAC/Sulpho-NHS 1:1 (Biorad) diluted 1/100 for 300 s at 25 μL/min. Anti-SIRPα antibodies were diluted to 80 nM concentration in 10 mM sodium acetate buffer pH 4.5 and immobilized to the chip at 30 μL/min for 50 s. Chip was inactivated with ethanolamine for 300 s at 25 μL/min. The analytes (e.g., SIRP-α from different species, SIRP-β, SIRP-γ) were injected in a “one-shot” kinetic mode at nominal concentrations of 100, 33, 11, 3.7, 1.2 and 0 nM. Association times were monitored for 90 s at 100 μL/min, and dissociation times were monitored for 1200 s. The surfaces were regenerated with a 2:1 v/v blend of Pierce IgG elution buffer/4M NaCl.
T14 sequence (P78324 31-149 limits assumed): as above

| Binder | Kd |
| --- | --- |
| B9 | 0.192 nM |
| B10 | 0.149 nM |
| B11 | 0.151 nM |
| B12 | 0.184 nM |

Molecular target: T15, human SIRPγ isoform 1 (human, UniProt Q9P1W8 29-147)
T15 construct: also called sirpg; sirp-g
Assay: SPR, antibody immobilised on GLC chip
Protocol: as §3, §4
T15 sequence (Q9P1W8 29-147 limits assumed): as the sequence (Q9P1W8 29-147 limits assumed) above

| Binder | Kd |
| --- | --- |
| B9 | 0.733 nM |
| B10 | 0.522 nM |
| B11 | 0.539 nM |
| B12 | 0.779 nM |

Molecular target: T16, human SIRP-α v2 D1 domain (human)
T16 construct: also called human v2; human α v2
Assay: SPR, antibody immobilised on GLC chip
Protocol: as §3, §4
T16 sequence (chain, as listed by the source limits assumed): as the sequence (chain, as listed by the source limits assumed) above

| Binder | Kd |
| --- | --- |
| B9 | 0.0175 nM |
| B10 | 0.0266 nM |
| B11 | 0.029 nM |
| B12 | 0.0197 nM |

Molecular target: T7, cynomolgus SIRP-α D1 domain (SEQ ID …)
Assay: SPR, antibody immobilised on GLC chip
Protocol: as §3, §4

| Binder | Kd |
| --- | --- |
| B9 | 0.127 nM |
| B10 | 0.102 nM |
| B11 | 0.0969 nM |
| B12 | 0.125 nM |
